Results from publication PMC6888457, “PpAKR1A, a Novel Aldo-Keto Reductase from Physcomitrella Patens, Plays a Positive Role in Salt Stress” (International Journal of Molecular Sciences, 2019).

T1: PpAKR1A (Physcomitrium patens, UniProt A9RMV1)
T1 construct: gene LOC112295666; full coding region (from ATGGCGTTCGAAGTGCCT), expressed in E. coli BL21 from pMAL-c1 (BamHI/SalI); purified on Ni-NTA as 'His-fusion' (tag description inconsistent: MBP vector vs His)
T1 sequence (A9RMV1 1-354): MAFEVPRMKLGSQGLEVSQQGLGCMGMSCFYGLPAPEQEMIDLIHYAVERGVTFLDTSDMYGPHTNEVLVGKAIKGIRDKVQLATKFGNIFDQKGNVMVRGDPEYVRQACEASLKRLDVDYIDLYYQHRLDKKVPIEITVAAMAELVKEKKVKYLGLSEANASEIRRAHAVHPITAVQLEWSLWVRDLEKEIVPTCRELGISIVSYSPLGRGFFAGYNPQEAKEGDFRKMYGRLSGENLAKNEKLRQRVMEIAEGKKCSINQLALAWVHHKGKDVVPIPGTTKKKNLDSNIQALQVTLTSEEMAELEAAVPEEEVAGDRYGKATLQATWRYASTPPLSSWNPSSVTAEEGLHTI

B1: PpAKR1A (Physcomitrium patens) (protein)
chain: T1 sequence (A9RMV1 1-354)
notes: full coding region (from …), expressed in E. coli BL21 from pMAL-c1 (BamHI/SalI); purified on Ni-NTA as 'His-fusion' (tag description inconsistent: MBP vector vs His)

Legend:
PpAKR1A = target: T1, PpAKR1A; assay: spectrophotometric NADPH oxidation at […] nm, Michaelis-Menten non-linear fit; assay type: biochemical; settings: 150 µM NADPH, 50 mM Tris-HCl pH 7.0, 25 °C; apparent constant
purified protein [1] = substrate: CC(=O)C=O; assay: purified protein; assay type: biochemical, Physcomitrium patens; settings: 150 µM NADPH, 50 mM Tris-HCl pH 7.0, 25 °C, apparent constant
purified protein [2] = substrate: O=CC=O; assay: purified protein; assay type: biochemical, Physcomitrium patens; settings: 150 µM NADPH, 50 mM Tris-HCl pH 7.0, 25 °C, apparent constant

Molecule	Km (PpAKR1A) [mM]	Km (purified protein [1]) [mM]	kcat (purified protein [1]) [s⁻¹]	kcat/Km (purified protein [1]) [M⁻¹ s⁻¹]	Km (purified protein [2]) [mM]	kcat (purified protein [2]) [s⁻¹]	kcat/Km (purified protein [2]) [M⁻¹ s⁻¹]
C=CC=O [Acrolein]	6.2 ± 1.11						
B1		0.2262 ± 0.063	0.86 ± 0.055	3810	1.526 ± 0.237	0.063 ± 0.041	63
